Results reported in US20240270860A1.

Columns and labels:
Assay in all cases: peptide-array ELISA (CYS.S) [Continued]
2LS2…2RPGWY = biological target: T1, 2LS2…2RPGWY
T1 sequence (peptide, 2 = Cys(ACM)): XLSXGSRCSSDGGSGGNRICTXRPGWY

2…2RPGWY2 = biological target: T2, 2…2RPGWY2
T2 sequence (peptide, 2 = Cys(ACM)): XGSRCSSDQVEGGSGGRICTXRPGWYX

[1] = biological target: T3, 2…
T3 sequence (peptide, 2 = Cys(ACM)): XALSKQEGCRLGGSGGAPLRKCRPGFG

E2LS2…2RPGWY2AL = biological target: T4, E2LS2…2RPGWY2AL
T4 sequence (peptide, 2 = Cys(ACM)): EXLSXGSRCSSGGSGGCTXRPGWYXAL

E2LS2…2RPGWY2 = biological target: T5, E2LS2…2RPGWY2
T5 sequence (peptide, 2 = Cys(ACM)): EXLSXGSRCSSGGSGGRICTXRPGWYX

E2LS2…2RPGWY = biological target: T6, E2LS2…2RPGWY
T6 sequence (peptide, 2 = Cys(ACM)): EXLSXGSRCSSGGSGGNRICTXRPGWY

[2] = biological target: T7, EGCRL2…
T7 sequence (peptide, 2 = Cys(ACM)): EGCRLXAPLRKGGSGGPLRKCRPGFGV

[3] = biological target: T8, KQEGCRL2…
T8 sequence (peptide, 2 = Cys(ACM)): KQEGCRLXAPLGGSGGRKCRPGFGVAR

LS2…2RPGWY2AL = biological target: T9, LS2…2RPGWY2AL
T9 sequence (peptide, 2 = Cys(ACM)): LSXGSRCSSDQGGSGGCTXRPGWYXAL

LS2…2RPGWY2 = biological target: T10, LS2…2RPGWY2
T10 sequence (peptide, 2 = Cys(ACM)): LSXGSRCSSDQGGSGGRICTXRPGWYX

LS2…2RPGWY = biological target: T11, LS2…2RPGWY
T11 sequence (peptide, 2 = Cys(ACM)): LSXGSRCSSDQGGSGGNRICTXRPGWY

PE2LS2…2RPGWY2A = biological target: T12, PE2LS2…2RPGWY2A
T12 sequence (peptide, 2 = Cys(ACM)): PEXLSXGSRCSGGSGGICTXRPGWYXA

PE2LS2…2RPGWY2 = biological target: T13, PE2LS2…2RPGWY2
T13 sequence (peptide, 2 = Cys(ACM)): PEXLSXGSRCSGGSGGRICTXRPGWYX

PE2LS2…2RPGWY = biological target: T14, PE2LS2…2RPGWY
T14 sequence (peptide, 2 = Cys(ACM)): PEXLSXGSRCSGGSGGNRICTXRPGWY

[4] = biological target: T15, QEGCRL2…2…
T15 sequence (peptide, 2 = Cys(ACM)): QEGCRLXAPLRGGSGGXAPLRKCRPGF

[5] = biological target: T16, QEGCRL2…
T16 sequence (peptide, 2 = Cys(ACM)): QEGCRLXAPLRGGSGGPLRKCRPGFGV

[6] = biological target: T17, QNRI2…
T17 sequence (peptide, 2 = Cys(ACM)): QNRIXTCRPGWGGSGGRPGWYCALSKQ

S2…2RPGWY2AL = biological target: T18, S2…2RPGWY2AL
T18 sequence (peptide, 2 = Cys(ACM)): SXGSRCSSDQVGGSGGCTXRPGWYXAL

S2…2RPGWY = biological target: T19, S2…2RPGWY
T19 sequence (peptide, 2 = Cys(ACM)): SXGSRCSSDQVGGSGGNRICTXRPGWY

[7] = biological target: T20, SKQEGCRL2APGGSGG2…
T20 sequence (peptide, 2 = Cys(ACM)): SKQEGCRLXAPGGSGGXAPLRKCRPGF

[8] = biological target: T21, SKQEGCRL2…
T21 sequence (peptide, 2 = Cys(ACM)): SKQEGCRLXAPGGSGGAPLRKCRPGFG

[9] = biological target: T22, SKQEGCRL2…; remark: listed apart in the source
T22 sequence (peptide, 2 = Cys(ACM)): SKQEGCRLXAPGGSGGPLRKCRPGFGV

VPE2LS2…2RPGWY2A = biological target: T23, VPE2LS2…2RPGWY2A
T23 sequence (peptide, 2 = Cys(ACM)): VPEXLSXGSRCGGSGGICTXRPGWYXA

VPE2LS2…2RPGWY2 = biological target: T24, VPE2LS2…2RPGWY2
T24 sequence (peptide, 2 = Cys(ACM)): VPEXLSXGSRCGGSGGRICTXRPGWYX

VPE2LS2…2RPGWY = biological target: T25, VPE2LS2…2RPGWY
T25 sequence (peptide, 2 = Cys(ACM)): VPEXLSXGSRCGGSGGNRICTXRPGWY

[10] = biological target: T26, WY2…2…
T26 sequence (peptide, 2 = Cys(ACM)): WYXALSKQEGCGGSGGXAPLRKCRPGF

[11] = biological target: T27, WY2…
T27 sequence (peptide, 2 = Cys(ACM)): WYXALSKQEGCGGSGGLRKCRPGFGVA

[12] = biological target: T28, Y2…2…
T28 sequence (peptide, 2 = Cys(ACM)): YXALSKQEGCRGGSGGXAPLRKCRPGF

…2RPGWY2AL [13] = biological target: T29, …2RPGWY2AL
T29 sequence (peptide, 2 = Cys(ACM)): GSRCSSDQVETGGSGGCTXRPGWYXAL

…2RPGWY2AL [14] = biological target: T30, …2RPGWY2AL; remark: listed apart in the source
T30 sequence (peptide, 2 = Cys(ACM)): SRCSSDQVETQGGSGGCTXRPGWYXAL

…2RPGWY2A = biological target: T31, …2RPGWY2A
T31 sequence (peptide, 2 = Cys(ACM)): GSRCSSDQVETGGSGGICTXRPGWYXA

…2RPGWY2 [15] = biological target: T32, …2RPGWY2
T32 sequence (peptide, 2 = Cys(ACM)): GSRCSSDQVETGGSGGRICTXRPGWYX

…2RPGWY2 [16] = biological target: T33, …2RPGWY2; remark: listed apart in the source
T33 sequence (peptide, 2 = Cys(ACM)): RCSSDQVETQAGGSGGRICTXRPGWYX

…2RPGWY [17] = biological target: T34, …2RPGWY
T34 sequence (peptide, 2 = Cys(ACM)): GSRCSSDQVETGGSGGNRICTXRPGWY

…2RPGWY [18] = biological target: T35, …2RPGWY; remark: listed apart in the source
T35 sequence (peptide, 2 = Cys(ACM)): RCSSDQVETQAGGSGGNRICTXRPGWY

…2…2RPGWY2 = biological target: T36, …2…2RPGWY2
T36 sequence (peptide, 2 = Cys(ACM)): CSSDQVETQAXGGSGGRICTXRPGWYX

[19] = biological target: T37, …2…
T37 sequence (peptide, 2 = Cys(ACM)): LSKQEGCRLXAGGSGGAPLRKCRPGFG

[20] = biological target: T38, …2…; remark: listed apart in the source
T38 sequence (peptide, 2 = Cys(ACM)): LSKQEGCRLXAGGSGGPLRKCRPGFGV

B1: antagonistic TNFR2 antibody TNFRAB1 (antibody, V domains shown)
VH: EVQLQESGGGLVKPGGSLKLSCAASGFTFSSYVMSWVRQTPEKRLEWVATISSGGSYTYYPDSVKGRFTISRDNAKNTLYLQMSSLRSEDTAMYYCARQRVDGYSSYWYFDVWGAGTAVTVSS
VL: DIVLTQSPAIMSASPGEKVTITCSASSSVYYMYWFQQKPGTSPKLWIYSTSNLASGVPVRFSGSGSGTSYSLTISRMEAEDAATYYCQQRRNYPYTFGGGTKLEIKR
Raw luminescence data (2LS2…2RPGWY): 878
Raw luminescence data (2…2RPGWY2): 614
Raw luminescence data [1]: 418
Raw luminescence data (E2LS2…2RPGWY2AL): 605
Raw luminescence data (E2LS2…2RPGWY2): 478
Raw luminescence data (E2LS2…2RPGWY): 389
Raw luminescence data [2]: 450
Raw luminescence data [3]: 430
Raw luminescence data (LS2…2RPGWY2AL): 510
Raw luminescence data (LS2…2RPGWY2): 546
Raw luminescence data (LS2…2RPGWY): 822
Raw luminescence data (PE2LS2…2RPGWY2A): 542
Raw luminescence data (PE2LS2…2RPGWY2): 585
Raw luminescence data (PE2LS2…2RPGWY): 928
Raw luminescence data [4]: 570
Raw luminescence data [5]: 558
Raw luminescence data [6]: 240
Raw luminescence data (S2…2RPGWY2AL): 538
Raw luminescence data (S2…2RPGWY): 666
Raw luminescence data [7]: 507
Raw luminescence data [8]: 220
Raw luminescence data [9]: 369
Raw luminescence data (VPE2LS2…2RPGWY2A): 540
Raw luminescence data (VPE2LS2…2RPGWY2): 478
Raw luminescence data (VPE2LS2…2RPGWY): 853
Raw luminescence data [10]: 327
Raw luminescence data [11]: 336
Raw luminescence data [12]: 308
Raw luminescence data (…2RPGWY2AL [13]): 464
Raw luminescence data (…2RPGWY2AL [14]): 391
Raw luminescence data (…2RPGWY2A): 403
Raw luminescence data (…2RPGWY2 [15]): 594
Raw luminescence data (…2RPGWY2 [16]): 543
Raw luminescence data (…2RPGWY [17]): 587
Raw luminescence data (…2RPGWY [18]): 247
Raw luminescence data (…2…2RPGWY2): 597
Raw luminescence data [19]: 253
Raw luminescence data [20]: 434
